Experimental data from patent US20100105875A1 (published 2010).

Legend:
[1] = molecular target: T1, recombinant fHbp from MC58 with Arg204 changed to histidine (Neisseria meningitidis strain MC58, UniProt E6MV22 27-274); test: western blot of site-directed mutant of recombinant MC58 fHbp
T1 construct: also called Arg204→His mutant
T1 sequence: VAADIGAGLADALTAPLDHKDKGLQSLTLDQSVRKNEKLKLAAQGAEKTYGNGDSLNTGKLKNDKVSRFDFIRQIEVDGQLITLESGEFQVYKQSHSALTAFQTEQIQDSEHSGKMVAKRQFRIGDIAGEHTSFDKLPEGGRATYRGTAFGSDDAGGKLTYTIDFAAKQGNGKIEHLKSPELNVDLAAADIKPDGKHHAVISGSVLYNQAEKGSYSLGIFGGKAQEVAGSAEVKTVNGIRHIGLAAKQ

[2] = molecular target: T2, fHbp of N. meningitidis strain MC58 (full-length mature factor H binding protein) (Neisseria meningitidis strain MC58, UniProt E6MV22 20-274); test: western blot on cell extracts; FACS on bacteria
T2 construct: also called MC58 fHbp; protein 741
T2 sequence: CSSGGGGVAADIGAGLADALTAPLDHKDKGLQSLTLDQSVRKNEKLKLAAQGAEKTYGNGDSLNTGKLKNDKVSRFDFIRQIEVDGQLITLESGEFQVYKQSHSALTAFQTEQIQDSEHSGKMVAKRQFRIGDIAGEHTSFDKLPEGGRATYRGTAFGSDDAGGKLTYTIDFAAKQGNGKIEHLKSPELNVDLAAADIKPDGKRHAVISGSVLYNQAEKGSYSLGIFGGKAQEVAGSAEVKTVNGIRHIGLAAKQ

B1: MAb502 (antibody, V domains shown)
VH: EVQLQESGPGLAKPSQTLSLTCSVTGYSITSDFWNWIRKFPGNKLEYMGYISYSGSTDYNPSLKSRISITRDTSKNQYYLQLNSVTAEDTATYYCARYFGSSYAMDHWGQGTSVTVSS
VL: DIQMTQSPASLSASVGETVTITCRASGNIHNYLAWYQQKQGKSPQLLVYTAKTLAEGVPSRFSGSGSGTQFSLKINSLQPEDFGSYYCQHFWSTPWTFGGGTKLEIKR
notes: also called monoclonal anti-fHbp antibody MAb502
[1]
  binding result: no binding
[2]
  binding result: binds
